Measurements: the domain aggregation screens of Martell et al. (2025)

experiment: soluble fraction after stress (log2 fold change); higher = more stays soluble; pooled small domains, quantitative proteomics; conditions: stress: 75 degC
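Note: 20 min heating vs room temperature control held 20 min.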

Compared with “HMKAGEDAVQKAVLEAVAESAAAVADYKAGSERALNFIVGKVMKKTRGKASAAEVHRLVREEVDR”, “HMKAILHQESRSGFANATVIGGLDKFLDTNWNQLSKYIKKIETPYSDRSLEDRKIWISTILGILSTEI” is higher in “soluble fraction (log2)” value: 0.0653 for the first, 0.279 for the second.

Compared with “HMKALHEEIAEKIQEQILRSNLAPGDKLDTELELAARYGVSRSTIRQALIQLESAGLIDRLHGRGTFVAD”, “HMKAPDSQYKPLTDFQTDASFQKLDAYLRNRYPAMLANAVVYDVLRTPDAISYRVNYQVDNKMITINAAVT” is lower in “soluble fraction (log2)” value: 0.59 for the first, -1.66 for the second.

“HMKAPLTFVIEGKEYEAFDQYKTGAELKQLAGIPLDTELFLSISKPYQDELIENEKQVNLARPETEYFFVK” and “HMKAQTVPQFVGMTMTEAEEKASELGITLIEGAVVDSVEPKDTILTQDVDEGTEITGKMEIMVTISS” are within 0.2 log units of each other in “soluble fraction (log2)” value: 0.522 for the first, 0.324 for the second.

Compared with “HMKARLRRVFQIYYGDAYSIMKALKETFPLQTIVHEPRTNSIVVDTPDEETATKIGDVVSAL”, “HMKDANIQIGKRLREARLNMNLEKSEIADVLGVTVEHYRKLEAGVMGISVDKVLTLYHKYGIDPTYLITG” is lower in “soluble fraction (log2)” value: -0.771 for the first, -3.36 for the second.

Compared with “HMKDEGSLKVIGQMVVIGIPQSEAKRFANTYTVAQIRAALQYTQKRSEDKNASKLENVAAYFRQALVRNWG”, “HMKDHKSKWMAKTELDSIAKNLSKKHAISLDYEEDGTRFYAGGQSPLGIGRLFTVFVAPRNGHWSDQLR” is higher in “soluble fraction (log2)” value: -2.57 for the first, 0.194 for the second.

First: HMKDLIGEAKAKELALGHAKLSASDVTFIHVELDWENGRRVYDVEFYSGAKEYDYEIDAKTGEIVSFDY
Second: HMKDLQHLVGEKGTTVTPLRPSGIALIKGSRYDVVSEGSFIQQGVAVEVIKVEGRRVVVSPLQED
The “soluble fraction (log2)” value of the first is lower: -1.23 for the first, -0.722 for the second.

Compared with “HMKDLSMPDVMGSSLNDAKKALTELGIMDITVRYVESGSSEGSIVGMEPPAGSKFAADGKVVLQVSSGS”, “HMKDMKISTQNILKELATNYPDQTAFRKNVIESTAKSMGYTGKDFYPMLTAETRVKIGTYDLSALLQTV” is lower in “soluble fraction (log2)” value: 0.542 for the first, -0.38 for the second.

Going from “HMKDPSFELMSVAESFYRSGNVDHAVYALEKYLEVYADGDYTDRAHDLLSQARKGLTYPHGYPPLQI” to “HMKDRDISNAVLNILSKDSDHNYNYKQIASVLGVKDPFVRKRIVSVLAQLTKNGQLEEISRGKYQIKN”, the “soluble fraction (log2)” value rises from -1.26 to -0.478.

First: HMKDRNISSSVLEILSKDPDHTYNYKQIAALLGVKDAFIRKRIVTLLAQLAKDGHLDEISRGKYQIK
Second: HMKDVVAPMSGRVVRLMVAAGDEVVKRQALVVVEAMKMENVLTAPKEGRIKKVPVREGMTVEVGQTLVSFE
The “soluble fraction (log2)” value of the first is higher: -1.22 for the first, -1.88 for the second.

First: HMKDYKSALQELIQSGDKRVISYHTLKETGPSHNREFEAAVKLDGNIILGVGKGKTKKEAEQNAAHEALKK
Second: HMKDYKSSLQERVQAVGGGQLIYRVNREEGPDHSKTFYMDLFLGDRLIGTGSGRNKKQAEQQAAKEAIERG
The “soluble fraction (log2)” value of the first is higher: -0.0221 for the first, -0.283 for the second.

Compared with “HMKDYKTIFQELIQKKHKTSPIYKSYEYNDMFKAEVYVNDKSFADGIGKSKKEAETDAAKKALEKIEMA”, “HMKDYQGEISVVASGERIDVYLFNYFNLFSRTKIKNHIKNGNILVNENIISPSYILKQNDKIAFNLGAPY” is lower in “soluble fraction (log2)” value: -0.0428 for the first, -2.27 for the second.

Compared with “HMKDYQGNILIQSEGDRIDKFLFKYFNSFSRTKIKNHIINGNILVNDKNTIPAYVLKINDKISYDLSTSVK”, “HMKEAITVIGGKNNITFDASAQAEIGIYSMDGVQIQKKTISDNERIDLPAGMYVVTVKTGQANVSKVVVV” is higher in “soluble fraction (log2)” value: -1.9 for the first, -0.553 for the second.

“HMKEDSTIIERIISNLSSASLKTQKAFEYKLTDLMFRFSEGEYEWSSAMEVIREELLPFLNK” and “HMKEETEMVTIPDVTGKPLTEAANLLREAKLDYLAESTGTSVTKQMPLPGAEVMVNTTVLLYTG” are within 0.2 log units of each other in “soluble fraction (log2)” value: 0.0891 for the first, 0.157 for the second.

First: HMKEEVMVPNVVGKELSAALLEMQVKELYPKLQLKYSNFVDDKGTVLEQSPPAGSIVKAGRRINLVVSRGA
Second: HMKEIKAPNKINAHLIEEWRSQHPTELFPEEKVDLIYYKGEEYYFVIEEKNELGEIEEWYFAYDGGIDYV
The “soluble fraction (log2)” value of the first is lower: 0.106 for the first, 0.372 for the second.

Compared with “HMKEILTNESIIQFVKDKVSEEQIIYKINNSPIDFKLDVNSMVSLAKQNVSSTIIIAMENAMNN”, “HMKELLQEMIMDILRAIASPNIDIKRKTLDLVLDLITPRNIDNVTGMLKTEVVKSQSENTSDVG” is lower in “soluble fraction (log2)” value: -1.28 for the first, -1.58 for the second.

First: HMKELTYSDFRKAYPDIQGNLFGMAERYITALDWTEVAAKVETDEELRKERDIFYLVKTYIRKYVQ
Second: HMKELVAGQTVRVHHSIGFGQTGTVTALNSLKTTLPNGLRTNTASILFQNNEKVVLPISNFDIIES
The “soluble fraction (log2)” value of the first is lower: -1.86 for the first, -0.0164 for the second.

Compared with “HMKELVEDFASRISNARQSKGWNQSELAKRMAETVNVVKSAESGKSPTDSVIKKLERVLGIILM”, “HMKEQLITVYVSGAVARPGLYELPAGIRAQEAVEAAGGFTEAANHEKVNLAKKLKDGSQVNVPALK” is higher in “soluble fraction (log2)” value: -0.778 for the first, -0.122 for the second.

First: HMKEQYDLNDREQQFISLVANGLNNKEIAETLFLSEGTVRNYLSNLLDKLGLRDRTQLAIFFYQHL
Second: HMKERLLDPYKDFIVNYLQKYPYTPAAVMHDKLKESYPDFPKVDPKTIYNFVMLLRRDFNIPKV
The “soluble fraction (log2)” value of the first is lower: -2.01 for the first, -0.842 for the second.

Compared with “HMKETERKILQAVLGLPLKYRDVIHLFYYEEMSVKEIAEVLHRQESTVTSQLTRARGILKKNL”, “HMKETLSDTVSRKLEDMITTQMKAGNRLPTEMVLAEMYSVGRSTIRESLKALSSKGLIVRKKDGTFVSDRV” is lower in “soluble fraction (log2)” value: 0.264 for the first, -0.422 for the second.

Compared with “HMKEVKAPMPGMVLRVEVAPGQEVQEGDPLLVLEAMKMENNLKSPASGTIKSVHVEAGKAVEKGAVLVVF”, “HMKEVKRDQVIEAARKLFHQFGFKKVSMDEIAKEAGVTKKTIYMYFESKEELLKYFIQEEISN” is lower in “soluble fraction (log2)” value: -0.0661 for the first, -0.373 for the second.

Going from “HMKEVVKVTITPSEKLKSQYPDALVSIDGKFYDLGILNNPVEFYMDKDHKISIIWSTAELVESFRI” to “HMKEYRKEGHLYFVTEDRNNEIYLWDFTDKPKHEFKEIITSVELQKVAKEGAMLQYKNGKYELYS”, the “soluble fraction (log2)” value falls from -0.000631 to -0.78.

First: HMKFDVNAAIRAVLNVTVDKGATLERIMKETNLTSDQLVLPIALLMKTERLHFKRSGTHEVYVSVGKAPDK
Second: HMKFGEQIKERRQELDLTQAEVAEKLFVTRQAVSNWEHNKTYPDLNMLVKISNVYQISLDSLLR
The “soluble fraction (log2)” value of the first is lower: -3.79 for the first, -1.37 for the second.

“HMKFHENLIALRRREGWSQEELGNRIGVTRQTVSKWELGLTTPELEKLVQLADVFGMTTDQLVGR” and “HMKFNLWLSEKLKKLGLTQRKLAEQAGVSPATVSRWLSGEFEPDLTNLRKINQVLGVPERELFLQLGL” are within 0.2 log units of each other in “soluble fraction (log2)” value: -0.295 for the first, -0.193 for the second.

First: HMKFPNVGENLRLLRQEMGISLDKASKMTGVSKAMLGQIERGESSPTVSTLWKISSGFKINFTTLLSE
Second: HMKFPPASDIRRMRKAIDVTQTELAKQSGVSQSTIAKIERGRISASYDTVVKLFETLDEMAK
The “soluble fraction (log2)” value of the first is lower: -2.92 for the first, -0.405 for the second.

Compared with “HMKFTPPTLEQIKNEMLLKTDEYNADIQSDRFFTYYDSNGWMVGKNKMKKFLVSLVAVFAATSA”, “HMKFYIHEIIGFNAVDKVAGIVGKVININEDSPQKKLVVNYNGKEVFIPLVDEIVRKIDKQKNEVLITMP” is higher in “soluble fraction (log2)” value: -0.786 for the first, 0.00585 for the second.

Compared with “HMKGEIEELLYEEVTKDNNTTFLRIYIKLNDEYNTLLNLGIIGIKTEEKVNELVNLGYKKVL”, “HMKGISRVTMELIIDALKKETEPRTVQWIAEKTGLATQTTYRYLQYMVSEQTVEALNVYGKVVSLKAK” is higher in “soluble fraction (log2)” value: -4.19 for the first, -0.649 for the second.

Compared with “HMKGKWKPIILWQLSKAPQSLSGLRHSIAGISQKMLIQHLNELIHFGFVVRTTFEGYPLKVEYDLTDRGR”, “HMKGLDAAVVDLFKSKGASIVFAGNRLSLSGEVADQATKDELLAKAKAILASLGASVSLDDKLMVKGAKAS” is higher in “soluble fraction (log2)” value: -0.196 for the first, 0.0761 for the second.

Compared with “HMKGMIKVASMSLGADLGLYSRHLKYLGIVHRVVEESGGQSVYIQKLNDLHTAKESLELYLKNELKI”, “HMKGQNRSEITAGARVKVVQKQDQRTGALTEGIVRDILTRSPHHPHGIKVRLESGIVGRVKDVL” is higher in “soluble fraction (log2)” value: -2.56 for the first, -0.312 for the second.

Going from “HMKGSIMIETILKELKKNNKGFNFLLEKFDISEDELMKIINDLIHDKKVFLNSNNKYEIVSD” to “HMKGTVLAPGIILNADDQRFTYLQEDVASVAKDGAAIVLKQGDEVDFIADGQTAKQIYLTKT”, the “soluble fraction (log2)” value rises from -0.72 to 0.289.

“HMKGVPGIGDYVKLSGGSTVGKVLSISGKKAEVAFGLLRTTTELSKLEKVRKPKELLQSGVSS” and “HMKGVTVDGDNITVDGEKQTLISVNKNLDGDVVSYTYRTADGKLRTSRNVEVAQEINKQQLLKSIDAQ” are within 0.2 log units of each other in “soluble fraction (log2)” value: -0.0317 for the first, 0.0529 for the second.

Compared with “HMKGWPDREQAEKIWQQGIDYAIEHHTMSPQIVKEYIFHTQGIARSAALIAARLPDMDTEKAYVLGLLHD”, “HMKIAEALNLRGDADSYERQEAIWLLEHIVGMSALELKYRGEQDLTEDQLQQYRSGLQRLEQGEPLAYVIG” is lower in “soluble fraction (log2)” value: -0.377 for the first, -0.965 for the second.

First: HMKIDLKQIEGVLDELAKVKGSLITILQKTQETYGYLPKEAIIYISERTGIAESEIMGVATFYTQFRL
Second: HMKIDLTPQEEKIYSVLETELTLDEIIMKTSIKAGEALAILMDLELKKLVASVAGGKYRRKA
The “soluble fraction (log2)” value of the first is lower: -0.45 for the first, 0.386 for the second.

Going from “HMKIEETLGKTAQVYIPIPQYLSGIGKVTLSVRGSLRELDAMTEEEKIPSNTIVRIVKVQDQVLFVKRA” to “HMKIHNSIREITDFDRKQNSNIPSDAKYRIVFYTPQGNKTIIPEELQGLQYYRSKELAEIALNKKLNSN”, the “soluble fraction (log2)” value rises from -3.77 to -0.197.

Compared with “HMKILKQLEAIIEKEGLNESAKQFYLREISELDKEKQQEIINLVDKMEQAGFKNNLASAFSEVTEDIPQF”, “HMKILNYQSLVGKKGITKSMLRPAGIVEIEGRRYDVVTRGEFIEPGKMITVDEVQGNRIIVQIERE” is lower in “soluble fraction (log2)” value: -0.138 for the first, -0.758 for the second.

Compared with “HMKIPIIYQPLKNAKRIKIYIPYELKELRTIFKKINTTFWHPNQKLWSIIYTQENVALIKNLFGKNYKIVN”, “HMKIQEVDYSTFLNMLNEKSIAQVEIQDNQIAFNSNQEGNKQIYVTGRIEEDTELVNRLQAAGVQFSRV” is higher in “soluble fraction (log2)” value: -0.499 for the first, 0.0484 for the second.

Compared with “HMKIRIIKTASNAKAVQIVSYKNNKRIVLQHIGSAHTDETLNDLKILAEEWIKDYNHQLSIF”, “HMKISDLPAAQVYREIVHAWPKAAAYADLAPINNGGMQRWRDVVHEWVLRGYNPANLRGMLEWYKAGIPTR” is higher in “soluble fraction (log2)” value: -2.88 for the first, -0.731 for the second.

First: HMKISDMIETNLKFLRGKHSISQAELAESLGIPRTTLSAYERGFVEPNIELMLKMAKYFNVSLDDLIAYN
Second: HMKISQSRKAGKLVLESELKRGGVSLDQYRGGRMSRILELIGVKSLNELLTDLGTGKKTGALVAERFFSGL
The “soluble fraction (log2)” value of the first is lower: -2.07 for the first, -0.618 for the second.

Going from “HMKITFNPVSSGRLDIILAEKTGYTRSYVKQLVEKQAVTINGEAAKKSGQNVKAGDEIALDEP” to “HMKITIDSVERDETFRLIWGTGWKPKNKIQELAAIQAKKNGLGRMNEVAGLAAWRGIWQQVAEQVAQEVL”, the “soluble fraction (log2)” value falls from 0.151 to -2.03.

With “HMKITKIWFTADHIFGRDEEGKEYSQSLLWYPKLSAASDEERSQYTFGYDGIHWRSLDEDISFESF” the “soluble fraction (log2)” value was -3.01.
